This is an account of results in patent publication US20240167070.

Series [1] deals with T1, model peptide 4, AIYRRGRLYRRNSL
T1 chain: AIYRRGRLYRRNSL

The target of the next series is T2, model peptide 5, …(OH)SL.
T2 chain: AIYRRGRLYRRXSL

The target in series [2] is T3, model peptide 6, AIYRRGRLYRRDSL
T3 chain: AIYRRGRLYRRDSL

The target in series [3] is T4, model peptide 1, AIYRRGRLYRRNHV
T4 chain: AIYRRGRLYRRNHV

A further series concerns the target T5, model peptide 2, …(OH)HV.
T5 chain: AIYRRGRLYRRXHV

Series [4] deals with T6, model peptide 3, AIYRRGRLYRRDHV
T6 chain: AIYRRGRLYRRDHV

B1: VyPAL2 (protein)
chain: DSIGTRWAVLIAGSKGYHNYRHQADVCHMYQILRKGGVKDENIIVFMYDDIAYNESNPFPGIIINKPGGENVYKGVPKDYTGEDINNVNFLAAILGNKSAIIGGSGKVLDTSPNDHIFIYYADHGAPGKIGMPSKPYLYADDLVDTLKQKAATGTYKSMVFYVEACNAGSMFEGLLPEGTNIYAMAASNSTEGSWITYCPGTPDFPPEFDVCLGDLWSITFLEDCDAHNLRTETVHQQFELVKKKIAYASTVSQYGDIPISKDSLSVYM
Turning to B1, the Michaelis constant (Km) in series [1] was determined as 42.5 µM; with model peptide 5, …(OH)SL it was 120 µM; in series [2] it was 2070 µM.

B2: butelase-1 (protein)
chain: VEGTRWAVLVAGSKGYVNYRHQADVCHAYQILKKGGLKDENIIVFMYDDIAYNESNPHPGVIINHPYGSDVYKGVPKDYVGEDINPPNFYAVLLANKSALTGTGSGKVLDSGPNDHVFIYYTDHGGAGVLGMPSKPYIAASDLNDVLKKKHASGTYKSIVFYVESCESGSMFDGLLPEDHNIYVMGASDTGESSWVTYCPLQHPSPPPEYDVCVGDLFSVAWLEDCDVHNLQTETFQQQYEVVKNKTIVALIEDGTHVVQYGDVGLSKQTLFVYMGTDPAN
For B2, the Michaelis constant (Km) in series [3] was 67.5 µM; with model peptide 2, …(OH)HV, 98.8 µM; in series [4], 630 µM.
